Here are results for 54 variants from the RNAGym collection of RNA variant scans (doi:10.7554/elife.80360).

B1: Twister Ribozyme (parent)
chain: AACACUGCCAAUGCCGGUCCCAAGCCCGGAUAAAAGUGGAGGGGGCGG

This data set covers variants of B1. The data set can be described thus: self-cleavage, relative activity (ratio to wild type); higher = more cleavage; co-transcriptional.
As for AACACUGCCAAUGCCGGUCCCACGCCCGGAUAAAAGUGGAGGGGACGG [A23C G45A], the self-cleavage worked out at 0.118.

As to AACACUGCCAAUGCCGGUCCCACGCCCGGAUAAAAGUGGAGGGGUCGG [A23C G45U], the self-cleavage is 0.156.

In the case of AACACUGCCAAUGCCGGUCCCAGGCCCGGAUUAAAGUGGAGGGGGCGG [A23G A32U], the self-cleavage amounted to 0.393.

With AACACUGCCAAUGCCGGUCCCAGACCCGGAUAAAAGUGGAGGGGGCGG [A23G G24A], the self-cleavage amounted to 0.12.

Take AACACUGCCAAUGCCGGUCCCUAGCCCGGAUAAAAGUGGAGCGGGCGG [A22U G42C]: the self-cleavage was determined as 0.154.

Regarding AACACUGCCAAUGCCGGUCCCUAGCCCGGAUAAAAGUGGAGUGGGCGG [A22U G42U], the self-cleavage stood at 0.191.

For AACACUGCCAAUGCCGGUCCCAGGCCCGGAUAAAAGUGGUGGGGGCGG [A23G A40U], the self-cleavage stood at 0.125.

As to AACACUGCCAAUGCCGGUCCCAGGCCCGGAUAAAAGUGGGGGGGGCGG [A23G A40G], the self-cleavage is 0.123.

In the case of AACACUGCCAAUGCCGGUCCCAGGCCCGGAUAAAAGUGGCGGGGGCGG [A23G A40C], the self-cleavage amounted to 0.0453.

For AACACUGCCAAUGCCGGUCCCACGCCCGGAUAACAGUGGAGGGGGCGG [A23C A34C], the self-cleavage was determined as 0.161.

Turning to AACACUGCCAAUGCCGGUCCCACGCCCGGAUAAUAGUGGAGGGGGCGG [A23C A34U], the self-cleavage worked out at 0.0811.

AACACUGCCAAUGCCGGUCCCACGCCCGGAUAAAAGUGGAGGCGGCGG [A23C G43C]: the self-cleavage is 0.123.

Regarding AACACUGCCAAUGCCGGUCCCACGCCCGGAUAAAAGUGGAGGUGGCGG [A23C G43U], the self-cleavage is 0.109.

In the case of AACACUGCCAAUGCCGGUCCCACGCCCGGAUAAAAGUGGAGGGGGCCG [A23C G47C], the self-cleavage was determined as 0.13.

As for AACACUGCCAAUGCCGGUCCCUAGCCCGGAUAAAAGUGGAGGGGCCGG [A22U G45C], the self-cleavage stood at 0.401.

As for AACACUGCCAAUGCCGGUCCCUAGCCCGGAUAAAAGUGGAGGGGUCGG [A22U G45U], the self-cleavage is 0.57.

For the variant AACACUGCCAAUGCCGGUCCCACGCCCGGAUAAAAGUGCAGGGGGCGG [A23C G39C], the self-cleavage worked out at 0.103.

As to AACACUGCCAAUGCCGGUCCCACGCCCGGAUAAAAGUGAAGGGGGCGG [A23C G39A], the self-cleavage was determined as 0.127.

For AACACUGCCAAUGCCGGUCCCUACCCCGGAUAAAAGUGGAGGGGGCGG [A22U G24C], the self-cleavage was determined as 0.0864.

For AACACUGCCAAUGCCGGUCCCUAUCCCGGAUAAAAGUGGAGGGGGCGG [A22U G24U], the self-cleavage was determined as 0.11.

In the case of AACACUGCCAAUGCCGGUCCCACGCCCGGAUGAAAGUGGAGGGGGCGG [A23C A32G], the self-cleavage was 0.187.

Turning to AACACUGCCAAUGCCGGUCCCACGCCCGGAUCAAAGUGGAGGGGGCGG [A23C A32C], the self-cleavage is 0.22.

Regarding AACACUGCCAAUGCCGGUCCCACGACCGGAUAAAAGUGGAGGGGGCGG [A23C C25A], the self-cleavage came out at 0.066.

With AACACUGCCAAUGCCGGUCCCACGGCCGGAUAAAAGUGGAGGGGGCGG [A23C C25G], the self-cleavage was 0.0881.

Regarding AACACUGCCAAUGCCGGUCCCGAGCCCGGAGAAAAGUGGAGGGGGCGG [A22G U31G], the self-cleavage is 0.263.

AACACUGCCAAUGCCGGUCCCUAGCCCGGAUAAAAGUGGAGGGAGCGG [A22U G44A]: the self-cleavage came out at 0.788.

As to AACACUGCCAAUGCCGGUCCCAGGACCGGAUAAAAGUGGAGGGGGCGG [A23G C25A], the self-cleavage was 0.0465.

Regarding AACACUGCCAAUGCCGGUCCCAGGUCCGGAUAAAAGUGGAGGGGGCGG [A23G C25U], the self-cleavage is 0.132.

For AACACUGCCAAUGCCGGUCCCACGCCCAGAUAAAAGUGGAGGGGGCGG [A23C G28A], the self-cleavage stood at 0.225.

Consider AACACUGCCAAUGCCGGUCCCACGCCCCGAUAAAAGUGGAGGGGGCGG [A23C G28C], for which the self-cleavage amounted to 0.0761.

Consider AACACUGCCAAUGCCGGUCCCUAGCCCGGAUAACAGUGGAGGGGGCGG [A22U A34C], for which the self-cleavage is 0.0816.

Consider AACACUGCCAAUGCCGGUCCCUAGCCCGGAUAAUAGUGGAGGGGGCGG [A22U A34U], for which the self-cleavage turned out to be 0.495.

For the variant AACACUGCCAAUGCCGGUCCCUAGCCCGGAUAAAUGUGGAGGGGGCGG [A22U A35U], the self-cleavage came to 0.659.

Turning to AACACUGCCAAUGCCGGUCCCUAGCCCGGAUAAACGUGGAGGGGGCGG [A22U A35C], the self-cleavage stood at 0.778.

On to AACACUGCCAAUGCCGGUCCCAGGCCCGGAUAGAAGUGGAGGGGGCGG [A23G A33G], for which the self-cleavage was 0.281.

As for AACACUGCCAAUGCCGGUCCCAGGCCCGGAUAUAAGUGGAGGGGGCGG [A23G A33U], the self-cleavage came out at 0.393.

In the case of AACACUGCCAAUGCCGGUCCCAGGCCCGGAUACAAGUGGAGGGGGCGG [A23G A33C], the self-cleavage was 0.187.

For AACACUGCCAAUGCCGGUCCCGAGCCCGGAUAAAAGCGGAGGGGGCGG [A22G U37C], the self-cleavage was 0.129.

With AACACUGCCAAUGCCGGUCCCUAGCCCGGAUAAAAAUGGAGGGGGCGG [A22U G36A], the self-cleavage was determined as 0.179.

Take AACACUGCCAAUGCCGGUCCCUAGCCCGGAUAAAACUGGAGGGGGCGG [A22U G36C]: the self-cleavage was found to be 0.19.

For the variant AACACUGCCAAUGCCGGUCCCAGGCCCGGCUAAAAGUGGAGGGGGCGG [A23G A30C], the self-cleavage was 0.0761.

With AACACUGCCAAUGCCGGUCCCACGCCCGGAUAAAAGUGGAGCGGGCGG [A23C G42C], the self-cleavage amounted to 0.156.

As to AACACUGCCAAUGCCGGUCCCACGCCCGGAUAAAAGUGGAGUGGGCGG [A23C G42U], the self-cleavage came to 0.0925.

AACACUGCCAAUGCCGGUCCCACGCCCGGAUAAAAGUGGAGAGGGCGG [A23C G42A]: the self-cleavage was determined as 0.113.

Take AACACUGCCAAUGCCGGUCCCUAGCCCGGAUAAAAGUGGAGGUGGCGG [A22U G43U]: the self-cleavage came out at 0.185.

Regarding AACACUGCCAAUGCCGGUCCCUAGCCCGGAUAAAAGUGGAGGAGGCGG [A22U G43A], the self-cleavage is 0.136.

Take AACACUGCCAAUGCCGGUCCCUAGCCCCGAUAAAAGUGGAGGGGGCGG [A22U G28C]: the self-cleavage is 0.548.

Consider AACACUGCCAAUGCCGGUCCCUAGCCCGGAUAAAAGUGAAGGGGGCGG [A22U G39A], for which the self-cleavage stood at 0.099.

For AACACUGCCAAUGCCGGUCCCAGGCCCGGAUAAAUGUGGAGGGGGCGG [A23G A35U], the self-cleavage amounted to 0.472.

Turning to AACACUGCCAAUGCCGGUCCCAGGCCCGGAUAAACGUGGAGGGGGCGG [A23G A35C], the self-cleavage was found to be 0.499.

As to AACACUGCCAAUGCCGGUCCCAGGCCCGGAUAAAGGUGGAGGGGGCGG [A23G A35G], the self-cleavage worked out at 0.188.

Regarding AACACUGCCAAUGCCGGUCCCUCGCCCGGAUAAAAGUGGAGGGGGCGG [A22U A23C], the self-cleavage is 0.0587.

As to AACACUGCCAAUGCCGGUCCCUUGCCCGGAUAAAAGUGGAGGGGGCGG [A22U A23U], the self-cleavage came to 0.102.

In the case of AACACUGCCAAUGCCGGUCCCUAGCCCGGCUAAAAGUGGAGGGGGCGG [A22U A30C], the self-cleavage came to 0.614.
